Positions count from the first letter of the chain named. Numbers in names are those of the source.
Assays:
Abz-LPETGK(Dnp)-CONH2 = biological target: T1, Abz-LPETGK(Dnp)-CONH2
T1 chain: LPETGK

[1] = biological target: T2, human CD154 tagged with the LPETG sequence at its C terminus (human, UniProt P29965 1-261); assay: cell-based or functional assay
T2 sequence: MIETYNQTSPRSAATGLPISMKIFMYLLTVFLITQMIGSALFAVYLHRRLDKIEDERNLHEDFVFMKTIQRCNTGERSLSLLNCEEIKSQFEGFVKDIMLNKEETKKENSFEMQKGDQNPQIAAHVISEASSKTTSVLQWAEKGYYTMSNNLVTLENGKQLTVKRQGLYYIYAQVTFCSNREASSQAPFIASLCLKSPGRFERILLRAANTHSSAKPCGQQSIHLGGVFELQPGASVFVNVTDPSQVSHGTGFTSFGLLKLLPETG

Gly-Gly-Gly-COOH (GGG) = biological target: T3, Gly-Gly-Gly-COOH (GGG)
T3 chain: GGG

[2] = biological target: T4, LPETG (SEQ ID NO: 32) substrate
T4 chain: LPETG

[3] = biological target: LPESG (SEQ ID NO: 38) substrate

B1: wild type S. aureus sortase A (enzyme)
chain: MQAKPQIPKDKSKVAGYIEIPDADIKEPVYPGPATPEQLNRGVSFAEENESLDDQNISIAGHTFIDRPNYQFTNLKAAKKGSMVYFKVGNETRKYKMTSIRDVKPTDVEVLDEQKGKDKQLTLITCDDYNEKTGVWEKRKIFVATEVKLEHHHHHH
kcat/Km LPETG (Abz-LPETGK(Dnp)-CONH2): 200 M⁻¹ s⁻¹
fluorescence of live HeLa cells labeled with GGGYK-biotin over background without enzyme, flow cytometry [1]: ≤ 2.8 fold

B2: D160N/K190E/K196T (clone 4.2) (protein)
chain: B1 chain with D102N, K132E, K138T
fold enhancement in catalytic efficiency compared to wild type (Abz-LPETGK(Dnp)-CONH2): an approximately 15-fold enhancement in catalytic efficiency at using the LPETG (SEQ ID NO: 32) substrate
fold reduction in Km LPETG compared to wild type (Abz-LPETGK(Dnp)-CONH2): a 5-7-fold reduction in Km LPETG
kcat/Km LPETG (Abz-LPETGK(Dnp)-CONH2): 2400 ± 700 M⁻¹ s⁻¹

B3: P94S/D165A (clone 4.3) (protein)
chain: B1 chain with P36S, D107A
fold enhancement in catalytic efficiency compared to wild type (Abz-LPETGK(Dnp)-CONH2): an approximately 15-fold enhancement in catalytic efficiency at using the LPETG (SEQ ID NO: 32) substrate
fold reduction in Km LPETG compared to wild type (Abz-LPETGK(Dnp)-CONH2): a 5-7-fold reduction in Km LPETG
kcat/Km LPETG (Abz-LPETGK(Dnp)-CONH2): 2600 ± 100 M⁻¹ s⁻¹

B4: P94S/D160N/D165A/K196T sortase A (protein)
chain: B1 chain with P36S, D102N, D107A, K138T
fold decrease in KM LPETG compared to wild type (Abz-LPETGK(Dnp)-CONH2): The 50-fold decrease in KM LPETG of the tetramutant compared to wild type
fold improved LPETG recognition compared to wild type (Abz-LPETGK(Dnp)-CONH2): 45-fold improved LPETG (SEQ ID NO: 32) recognition
fold improvement in kcat/Km LPETG compared to wild type (Abz-LPETGK(Dnp)-CONH2): a 140-fold improvement in its ability to convert LPETG (SEQ ID NO: 32) (kcat/Km LPETG)
kcat/Km LPETG (Abz-LPETGK(Dnp)-CONH2): 28000 ± 7000 M⁻¹ s⁻¹
fold increase in Km GGG compared to wild type (Gly-Gly-Gly-COOH (GGG)): a 30-fold increase in Km GGG for the sortase A tetramutant

B5: P94S/D160N/K196T srtA (enzyme)
chain: B1 chain with P36S, D102N, K138T
fold increase in KM LPETG compared to the tetramutant (Abz-LPETGK(Dnp)-CONH2): 3 fold
kcat/Km LPETG (Abz-LPETGK(Dnp)-CONH2): 8600 ± 1500 M⁻¹ s⁻¹
fold improvement in Km GGG compared to the tetramutant (Gly-Gly-Gly-COOH (GGG)): a 2.6-fold improvement in Km GGG
median fluorescence (streptavidin-AlexaFluor594) of live HeLa cells labeled with GGGYK-biotin, flow cytometry [1]: ≥ 30 fold

B6: P94S/D160N/D165A sortase A (protein)
chain: B1 chain with P36S, D102N, D107A
fold change in KM LPETG compared to the tetramutant (Abz-LPETGK(Dnp)-CONH2): KM LPETG were not altered by more than a factor of 3-fold
kcat/Km LPETG (Abz-LPETGK(Dnp)-CONH2): 7500 ± 300 M⁻¹ s⁻¹
fold improvement in Km GGG compared to the tetramutant (Gly-Gly-Gly-COOH (GGG)): the Km GGG of this mutant improved by 2.7-fold

B7: P94R/D160N/D165A/K190E/K196T srtA (protein)
chain: B1 chain with P36R, D102N, D107A, K132E, K138T
Km LPETG (fit of the one-hour time course, FIG. 16) (Abz-LPETGK(Dnp)-CONH2): Km LPETG=245±5 µM
fold change in KM LPETG compared to the tetramutant (Abz-LPETGK(Dnp)-CONH2): the kcat and KM LPETG were not altered by more than a factor of 1.3-fold
fold higher kcat/KM LPETG compared with wild type srtA (Abz-LPETGK(Dnp)-CONH2): a 120-fold higher kcat/KM LPETG
kcat/Km LPETG (Abz-LPETGK(Dnp)-CONH2): 23000 ± 3000 M⁻¹ s⁻¹
fold higher Km GGG compared with wild type srtA (Gly-Gly-Gly-COOH (GGG)): a 20-fold higher Km GGG
fold improvement in Km GGG compared to the tetramutant (Gly-Gly-Gly-COOH (GGG)): the Km GGG of this mutant improved by 1.8-fold

B8: srtA P94S (protein)
chain: B1 chain with P36S
kcat/Km LPETG (Abz-LPETGK(Dnp)-CONH2): 600 M⁻¹ s⁻¹

B9: srtA D160N (protein)
chain: B1 chain with D102N
kcat/Km LPETG (Abz-LPETGK(Dnp)-CONH2): 600 M⁻¹ s⁻¹

B10: srtA D165A (protein)
chain: B1 chain with D107A
kcat/Km LPETG (Abz-LPETGK(Dnp)-CONH2): 700 M⁻¹ s⁻¹

B11: srtA K196T (protein)
chain: B1 chain with K138T
kcat/Km LPETG (Abz-LPETGK(Dnp)-CONH2): 400 M⁻¹ s⁻¹

B12: Sortase 4S.4 (protein)
chain: QAKPQIPKDKSKVAGYIEIPDADIKELVYPGPATREQLSRGVSFTEENESLDDQNISITGHTSIGRPSYQFTNLRAAKKGSMVYFKVGNETRKYKMTSIRNVKPTAVEVLDEQEGKDEQLTLITCDDYNEETGVWETRKIFVATEVK
activity against LPETG [2]: completely abrogated activity against LPETG (SEQ ID NO: 32)
activity against LPESG [3]: activity against LPESG (SEQ ID NO: 38) comparable to the starting type pentamutant
altered substrate specificity, LPESG against LPETG, as determined by Kcat/Km (HPLC-based substrate cleavage assay) [3]: remarkably altered substrate specificity (>4000-fold, as determined by Kcat/Km)

B13: optimized variant 4S.12.2 (protein)
chain: B12 chain with L27P, S68N
activity against LPETG [2]: completely abrogated activity against LPETG (SEQ ID NO: 32)
activity against LPESG [3]: activity against LPESG (SEQ ID NO: 38) comparable to the starting type pentamutant
